Results on 39 molecules are retold here after PMC10963267 (2023).

Experiment [1] has as its target T1, HER2 extracellular domain (Homo sapiens, UniProt P04626). In words: flow.
Experiment [2] deals with T1, HER2 extracellular domain. The experiment can be described thus: Octet. Background: BLI is a label-free optical method that tracks binding on a fibre tip over time.
For experiment [3], the target named is T2, human epidermal growth factor receptor 2 (HER2), biotinylated (human, UniProt P04626 23-652, biotin). In words: BLI.
Experiment [4] has as its target T2, human epidermal growth factor receptor …. The experiment can be described thus: SPR. For orientation: SPR reads the build-up and loss of mass on a sensor chip optically.
Experiment [5] has the same target.
Experiment [6] has the same target. In words: SPR. The source holds these as a separate data set.
The target is the same in experiment [7]. In words: BLI. The source holds these as a separate data set.
Experiment [8] deals with T3, hen egg lysozyme (HEL), biotinylated (hen, UniProt P00698 19-147, biotin). In words: deep screening KDapp.
T3 sequence (P00698 19-147): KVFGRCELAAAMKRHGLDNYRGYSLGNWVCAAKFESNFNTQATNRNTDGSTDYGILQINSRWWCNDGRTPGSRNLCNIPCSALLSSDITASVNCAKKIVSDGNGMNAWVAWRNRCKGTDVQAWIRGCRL
Experiment [9] concerns the target T3, hen egg lysozyme (HEL), biotinylated. The experiment can be described thus: BLI.

Residue numbers refer to the chain shown, from its start. Numbers in names are those of the source. Like-named read-outs stand apart in the source and are kept apart here.

With HDVGYCDTPTCDKWPEYFQH [HER20015], the “apparent Kd (screen)” value in experiment [1] was 31 nM. This molecule showed a Kd in experiment [2] of 0.2 nM.

For the molecule HDVGYCDTESCEKWPEYFQH [HER20023], the “apparent Kd (screen)” value in experiment [1] turned out to be 31.6 nM. This molecule gave a Kd in experiment [2] of 0.578 nM.

Consider HDVAYCSSSRCLEWPEYFQH [HER20009], for which the “apparent Kd (screen)” value in [1] was determined as 11.2 nM. This molecule showed a Kd in [2] of 1.04 nM.

Consider HDVAYCDSDRCAKWPEYFQH [HER20008], for which the “apparent Kd (screen)” value in experiment [1] turned out to be 44.5 nM. The Kd in experiment [2] turned out to be 2.68 nM.

Turning to HDVAYCDDPTCAYWPEYFQH [HER20014], in experiment [1], the “apparent Kd (screen)” value was found to be 65.9 nM. Further, the Kd in experiment [2] came to 0.996 nM.

Regarding HDVGYCMSSNCAKWPEYFQH [HER20007], the “apparent Kd (screen)” value in [1] was 41.1 nM. In [2], this molecule yielded a Kd of 2.08 nM.

HDVAYCDTPTCAKWPEYFQH [HER20005] returned a Kd in experiment [2] of 1.86 nM.

With HDVGYCDTPTCDKWPEYFTH [HER20020], the “apparent Kd (screen)” value in [1] is 14.3 nM. Further, the Kd in experiment [2] is 0.294 nM.

B1: anti-HER2 Fab HER20010 (Fab, V domains shown)
VH: QVQLVQSGAEVKKPGESLKISCKGSGYSFTSYWIAWVRQMPGKGLEYMGLIYPGDSDTKYSPSFQGQVTISVDKSVSTAYLQWSSLKPSDSAVYFCARHDVAYCSSSRCLDWPEYFQHWGQGTLVTVSS
VL: QSVLTQPPSVSAAPGQKVTISCSGSSSNIGNNYVSWYQQLPGTAPKLLIYGHTNRPAGVPDRFSGSKSGTSASLAISGFRSEDEADYYCASWDYTLSGWVFGGGTKLTVL
For B1, the Kd in experiment [3] worked out at 1.06 nM.

B2: anti-HER2 Fab G98A (Fab, V domains shown)
VH: B1 VH with R108N, L110A, D111K
VL: B1 VL
In the case of B2, in experiment [4], the Kd stood at 320 nM.

B3: anti-HER2 Fab HER20015 (Fab, V domains shown)
VH: B1 VH with A102G, S105D, S106T, S107P, R108T, L110D, D111K
VL: B1 VL
Molecule B3 registered a Kd in experiment [3] of 0.2 nM.

B4: anti-HER2 scFv G98A, ribosome-displayed on the flow cell (scFv, V domains shown)
VH: B1 VH with R108N, L110A, D111K
VL: B1 VL
Regarding B4, the figures for the Kd in experiment [5] and in [6] were 24 nM and 320 nM, respectively.

B5: anti-HER2 Fab HER20011 (Fab, V domains shown)
VH: B1 VH with A102G, Y103L, R108N, L110A, D111K
VL: B1 VL
As for B5, in experiment [3], the Kd was found to be 5.25 nM.

B6: anti-HER2 Fab HER20006 (Fab, V domains shown)
VH: B1 VH with A102G, Y103W, S105T, R108N, L110A, D111K
VL: B1 VL
Turning to B6, in experiment [7], the Kd worked out at 0.85 nM.

B7: anti-HER2 Fab HER20007 (Fab, V domains shown)
VH: B1 VH with A102G, S105M, R108N, L110A, D111K
VL: B1 VL
B7 displayed a Kd in experiment [3] of 2.08 nM.

B8: anti-HER2 Fab HER20008 (Fab, V domains shown)
VH: B1 VH with S105D, S107D, L110A, D111K
VL: B1 VL
For B8, in experiment [3], the Kd came out at 2.68 nM.

B9: anti-HER2 Fab HER20009 (Fab, V domains shown)
VH: B1 VH with D111E
VL: B1 VL
Take B9: in [3], the Kd is 1.04 nM.

B10: anti-HEL nanobody M5, ribosome-displayed on the flow cell (VHH)
VHH: QVQLQESGGGLVQAGGSLRLSCAASGSIFYYTDMGWYRQAPGKEREFVASIGYGGITYYADSVKGRFTISRDNAKNTVYLQMNSLKPEDTAVYYCAVQRSFESYGYWGHVYWGQGTQVTVSS
Take B10: the Kd in [8] came out at 106 nM.

B11: anti-HEL nanobody M6, ribosome-displayed on the flow cell (VHH)
VHH: B10 VHH with F29S, Y30R, Y31D, T32P, G52S, Y53G, G55T, I56T
Take B11: the Kd in [8] came to 63.6 nM.

For the molecule HDVGLCSSSNCAKWPEYFQH [HER20011], the “apparent Kd (screen)” value in experiment [1] came to 40.6 nM.

B12: anti-HEL nanobody C1 (VHH)
VHH: QVQLQESGGGLVQAGGSLRLSCAASGSIFWAGYMGWYRQAPGKEREFVAAIDYGANTYYADSVKGRFTISRDNAKNTVYLQMNSLKPEDTAVYYCAVDRQPYYRRDNSHLYWGQGTQVTVSS
As to B12, the Kd worked out at 67.4 nM in experiment [9] and 11900 nM in experiment [8].

Consider HDVAYCSSSRCLDWPEYFQH [HER20010], for which, in [1], the “apparent Kd (screen)” value came out at 17.7 nM. Besides, the Kd in [2] was 1.06 nM.

For HDVGYCDTPTCATWPEQFDH [HER20022], the “apparent Kd (screen)” value in experiment [1] turned out to be 14.8 nM. The molecule also showed a Kd in experiment [2] of 0.183 nM.

For the molecule HDVGQCDSSNCETWPEYFQH [HER20024], the “apparent Kd (screen)” value in experiment [1] was 17.9 nM.

In the case of HDVGWCTSSNCAKWPEYFQH [HER20006], the “apparent Kd (screen)” value in [1] is 151 nM. In experiment [2], this molecule returned a Kd of 0.85 nM.

HDVGYCSESACQQWPEYFQH [HER20018]: the “apparent Kd (screen)” value in experiment [1] is 24.4 nM. The Kd in experiment [2] amounted to 2.26 nM.

On to HDVGYCDSSMCQMWPEYFQH [HER20026], for which, in [1], the “apparent Kd (screen)” value was determined as 4.78 nM. Further, the Kd in experiment [2] is 0.465 nM.

B13: anti-HEL nanobody C2 (VHH)
VHH: QVQLQESGGGLVQAGGSLRLSCAASGNISADASMGWYRQAPGKEREFVAAIARGATTYYADSVKGRFTISRDNAKNTVYLQMNSLKPEDTAVYYCAVDQYDVTKRYIGHIYWGQGTQVTVSS
For B13, the Kd in experiment [9] turned out to be 59.8 nM; in experiment [8] it was 11900 nM.

Take HDVGPCDTSTCAKWPEYFQH [HER20016]: the “apparent Kd (screen)” value in [1] was determined as 106 nM. This molecule came in with a Kd in experiment [2] of 1.41 nM.

For HDVGYCDTPTCNKWPEYFQH [HER20025], the “apparent Kd (screen)” value in experiment [1] worked out at 8.78 nM.

With HDVGYCSSSNCAKWPEYFQH [HER20002], the “apparent Kd (screen)” value in experiment [1] is 19.4 nM. Besides, the Kd in [2] stood at 1.65 nM.

In turn, HDVAYCSSSRCLTWPEYFQH [HER20003] displayed a Kd in [2] of 2.88 nM.

B14: anti-HEL nanobody M15, ribosome-displayed on the flow cell (VHH)
VHH: QVQLQESGGGLVQAGGSLRLSCAASGTISSQKLMGWYRQAPGKEREFVAAINDGATTNYADSVKGRFTISRDNAKNTVYLQMNSLKPEDTAVYYCAAYYDVRGYYWGTFGYWGQGTQVTVSS
Consider B14, for which, in [8], the Kd was found to be 64.4 nM.

As to HDTGYCDTPTCAKWPEYFQH [HER20021], the “apparent Kd (screen)” value in experiment [1] was found to be 17.7 nM. In experiment [2], this molecule came in with a Kd of 0.215 nM.

As for HDVGYCSTSRCLTWPEYFQH [HER20013], in [1], the “apparent Kd (screen)” value turned out to be 10 nM.

As to HDVGQCDSSNCATWPEYFQH [HER20019], in experiment [1], the “apparent Kd (screen)” value came out at 19.6 nM. Moreover, in experiment [2], the Kd is 0.79 nM.

Turning to HDVGYCSSHRCETWPEYFQH [HER20012], the “apparent Kd (screen)” value in experiment [1] was found to be 74.2 nM. Also, in [2], the Kd stood at 0.591 nM.

HDVGQCDSSNCAKWPEYFQH [HER20004]: the Kd in experiment [2] came to 3.44 nM.

With HDVGQCDSSNCAAWPEYFQH [HER20017], the “apparent Kd (screen)” value in experiment [1] worked out at 1350 nM. The Kd in experiment [2] was 1.46 nM.
